Test results from patent US20240216271A1, “HYDROLYTICALLY DEGRADABLE HYDROGELS AND USES THEREOF” (GEORGIA TECH RESEARCH CORPORATION, priority 2021, published 2024).

Test system: primary monocytes derived from the bone marrow of C57BL/6J mice
Assay: Bone marrow derived macrophage co-culture with microgels (flow cytometry)
Assay type: cell-based
Conditions: 48 hr of co-culture
From the text: To assess the effects of microgels on immune cell polarization in vitro, a co-culture system was setup involving primary monocytes derived from the bone marrow of C57BL/6J mice with different formulations of crosslinked microgels. […] In addition, the overall expression of these markers was equivalent after 4 days of co-culture (FIGS. 11A-D).
Bone Marrow Derived Macrophage Co-culture: Bone marrow was isolated from the femurs and tibias of 6-week-old male C57BL/6J mice. Bones were cleaned of soft tissue, one side was cut to expose the marrow, and they were inverted in a 200 μL pipet tip cut to fit in a 1.5 mL Eppendorf tube. The bones were then centrifuged at 10,000×g for 15 sec to pellet the marrow in the bottom of the Eppendorf tube. Bones were discarded and cells were then resuspended in RBC Lysis Buffer (Biolegend 420302) to remove red blood cells. Cells were then washed in MACS buffer (DPBS pH 7.2, 0.5% BSA, 2 mM EDTA) and monocytes were isolated using the Monocyte Isolation Kit (BM), mouse (Miltenyi Biotec 130-100-629) and LS columns (Miltenyi Biotec 130-042-401).
Monocytes were cultured in RPMI 1640 media (Gibco 11875-085) supplemented with 10% heat-inactivated fetal bovine serum, 1% pen/strep, and 20 ng/mL murine M-CSF (Biolegend 574804) for 6 days in low-adherent plates. […] Samples were analyzed on a FACS-AriaIIIu flow cytometer (BD Biosciences).

Substance: IL-4: murine IL-4, 20 ng/ml; IL-4-polarized M2 positive control
- cell viability / cell survival: increase in cell numbers
